Experiments:
[1] = test system: lymphatic endothelial cells
Protocol: The MTT assay was performed as described above. […] To differentiate between antiproliferative and cytotoxic effects, cells were counted 72 hrs after treatment with various concentrations of lamstatin.

[2] = test system: human primary lymphatic endothelial cells (HMVEC-LLy cells); assay: MTT cell viability assay, lymphatic endothelial cells; assay type: cell-based
Protocol: To determine the function of lamstatin, human primary lymphatic endothelial cells (HMVEC-LLy cells) were exposed to various concentrations of lamstatin and an MTT assay was performed. As a comparison, commercially available tumstatin was used. Specifically, to assess cell viability 4×10^3 HMVEC-LLy cells were seeded per well in 100 μl complete EBM-2 media (with bullet kit, Lonza) and incubated for 2 hrs at 37° C., 5% CO2. After this period lamstatin, tumstatin and respective vehicles (1 nM EDTA, pH 3.0) were prepared in complete EBM-2 as serial dilutions in a separate plate and added. […] After 6 h of further incubation cells were lysed overnight with 10% SDS/0.01 M HCl and measured the following day in a plate reader at 570 nm.
The MTT assay was performed as described above.

[3] = target: T1, integrins α5 and β1 (Homo sapiens, UniProt P05556+P08648); assay: Integrins mediating binding of lymphatic endothelial cells (data not shown); assay type: cell-based; settings: HMVEC-LLy in vitro, different from HUVECs
T1 construct: endogenous in cells; host or cells: HMVEC-LLy (human primary lymphatic endothelial cells)

[4] = target: T2, integrin β1 (Homo sapiens, UniProt P05556+P08648); assay: Integrin binding of HMVEC-LLy cells on antibody-coated plates; assay type: cell-based; settings: lamstatin 10 μg/ml, CP17 5 μM, 1 h
T2 construct: endogenous in cells; host or cells: HMVEC-LLy (human primary lymphatic endothelial cells)
T2 sequence (P05556 21-798): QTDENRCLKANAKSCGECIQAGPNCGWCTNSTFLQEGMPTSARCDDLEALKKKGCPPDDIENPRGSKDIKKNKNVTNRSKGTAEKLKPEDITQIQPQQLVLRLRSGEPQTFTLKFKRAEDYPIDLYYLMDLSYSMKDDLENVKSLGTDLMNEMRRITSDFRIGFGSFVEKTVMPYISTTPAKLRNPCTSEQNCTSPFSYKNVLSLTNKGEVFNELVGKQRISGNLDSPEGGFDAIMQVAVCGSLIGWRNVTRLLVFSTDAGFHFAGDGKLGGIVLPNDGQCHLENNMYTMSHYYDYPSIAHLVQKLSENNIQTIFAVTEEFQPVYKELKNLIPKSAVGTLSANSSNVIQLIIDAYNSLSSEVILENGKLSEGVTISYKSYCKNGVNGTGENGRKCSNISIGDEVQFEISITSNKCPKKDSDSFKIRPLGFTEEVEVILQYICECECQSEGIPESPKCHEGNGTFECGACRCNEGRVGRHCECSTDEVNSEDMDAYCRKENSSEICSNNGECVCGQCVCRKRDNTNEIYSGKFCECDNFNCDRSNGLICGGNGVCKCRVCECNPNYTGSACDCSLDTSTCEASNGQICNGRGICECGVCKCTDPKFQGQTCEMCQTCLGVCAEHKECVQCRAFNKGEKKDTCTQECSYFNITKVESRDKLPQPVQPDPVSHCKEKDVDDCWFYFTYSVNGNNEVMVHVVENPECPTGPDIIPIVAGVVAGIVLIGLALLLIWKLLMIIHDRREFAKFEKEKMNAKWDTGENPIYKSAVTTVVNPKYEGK
T2 sequence (P08648 42-894 limits assumed): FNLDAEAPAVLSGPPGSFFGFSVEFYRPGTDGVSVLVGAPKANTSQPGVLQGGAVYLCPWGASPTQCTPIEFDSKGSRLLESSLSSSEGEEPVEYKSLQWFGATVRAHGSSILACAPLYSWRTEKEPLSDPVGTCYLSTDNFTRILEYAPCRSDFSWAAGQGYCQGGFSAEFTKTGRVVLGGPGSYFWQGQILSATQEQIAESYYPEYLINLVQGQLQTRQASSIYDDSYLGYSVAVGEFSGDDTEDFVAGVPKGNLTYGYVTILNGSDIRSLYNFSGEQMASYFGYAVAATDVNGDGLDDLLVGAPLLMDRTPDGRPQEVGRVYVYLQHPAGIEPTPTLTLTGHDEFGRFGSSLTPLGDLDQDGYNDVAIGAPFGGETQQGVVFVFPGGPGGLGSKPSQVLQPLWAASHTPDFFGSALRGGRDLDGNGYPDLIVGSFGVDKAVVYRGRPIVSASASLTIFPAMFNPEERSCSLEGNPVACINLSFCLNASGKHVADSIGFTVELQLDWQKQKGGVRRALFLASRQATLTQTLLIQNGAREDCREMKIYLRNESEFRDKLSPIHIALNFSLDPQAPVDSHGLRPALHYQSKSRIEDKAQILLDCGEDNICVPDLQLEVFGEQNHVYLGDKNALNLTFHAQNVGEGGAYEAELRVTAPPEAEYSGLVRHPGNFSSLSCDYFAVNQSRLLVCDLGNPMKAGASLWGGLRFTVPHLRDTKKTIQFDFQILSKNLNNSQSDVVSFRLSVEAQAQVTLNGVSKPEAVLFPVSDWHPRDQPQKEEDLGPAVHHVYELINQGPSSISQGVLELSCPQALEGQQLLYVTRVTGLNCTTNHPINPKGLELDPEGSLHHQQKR
T2 sequence (P08648 895-1049 limits assumed): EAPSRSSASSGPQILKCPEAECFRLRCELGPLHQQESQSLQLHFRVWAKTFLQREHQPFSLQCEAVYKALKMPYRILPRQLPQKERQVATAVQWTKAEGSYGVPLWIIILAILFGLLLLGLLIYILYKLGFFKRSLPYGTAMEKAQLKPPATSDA
Protocol: (§1) Antibodies for integrin α5 (MAB1956Z; MAB1953Z), integrin β1 (MAB2253Z) and integrin β3 (MAB1957Z) (all Millipore, USA) were coated to 96 well tissue culture plates (Nunc, USA) at a concentration of 10 μg/mL overnight at 4° C. in sterile coating buffer (50 mM Na2CO3, 50 mM NaHCO3, pH 9.6). Plates then were blocked with sterile 1% BSA/PBS for 1 h at 37° C. and washed twice with EBM-2 MV (Lonza, Basel, Switzerland). MMVEC-LLy cells were carefully removed from culture flasks with non-enzymatic detachment solution (Trevigen, Md., USA) and washed twice with EBM-2 (Lonza, Basel, Switzerland). Volume was adjusted to a cell concentration of 50,000 cells/100 μL and divided into aliquots for treatment with recombinant lamstatin (10 μg/ml), CP17 (5 μM) or vehicle (1 nM EDTA, pH 3.5) only. Cells were then transferred to the antibody-coated plates and incubated for 1 h at 37° C. Wells were then washed with HANKS twice to remove unbound cells and fixed with 4% paraformaldehyde (in PBS) for 15 min at room temperature. Wells thereafter were photographed with an Olypmus CAMEDIA C-4000 camera mounted to an Olympus CK2 microscope. Pictures were divided into 25 segments and cells of 5 center-near quadrants were counted and averaged. […] Using a similar approach, the inventors observed no expression of integrin α4 on the surface of HMVEC-LLy cells (data not shown).

[5] = target: T3, integrin α5 (Homo sapiens, UniProt P05556+P08648); assay: as above; assay type: cell-based; settings: lamstatin 10 μg/ml, CP17 5 μM, 1 h
T3 construct: endogenous in cells; host or cells: HMVEC-LLy (human primary lymphatic endothelial cells)
T3 sequence (P08648 42-894 limits assumed): as the sequence (P08648 42-894 limits assumed) above
T3 sequence (P08648 895-1049 limits assumed): as the sequence (P08648 895-1049 limits assumed) above
T3 sequence (P05556 21-798): as the sequence (P05556 21-798) above
Protocol: as §1

[6] = target: T4, integrin β3 (Homo sapiens, UniProt P05106); assay: as above; assay type: cell-based; settings: lamstatin 10 μg/ml, CP17 5 μM, 1 h
T4 construct: endogenous in cells; host or cells: HMVEC-LLy (human primary lymphatic endothelial cells)
T4 sequence (P05106 27-788): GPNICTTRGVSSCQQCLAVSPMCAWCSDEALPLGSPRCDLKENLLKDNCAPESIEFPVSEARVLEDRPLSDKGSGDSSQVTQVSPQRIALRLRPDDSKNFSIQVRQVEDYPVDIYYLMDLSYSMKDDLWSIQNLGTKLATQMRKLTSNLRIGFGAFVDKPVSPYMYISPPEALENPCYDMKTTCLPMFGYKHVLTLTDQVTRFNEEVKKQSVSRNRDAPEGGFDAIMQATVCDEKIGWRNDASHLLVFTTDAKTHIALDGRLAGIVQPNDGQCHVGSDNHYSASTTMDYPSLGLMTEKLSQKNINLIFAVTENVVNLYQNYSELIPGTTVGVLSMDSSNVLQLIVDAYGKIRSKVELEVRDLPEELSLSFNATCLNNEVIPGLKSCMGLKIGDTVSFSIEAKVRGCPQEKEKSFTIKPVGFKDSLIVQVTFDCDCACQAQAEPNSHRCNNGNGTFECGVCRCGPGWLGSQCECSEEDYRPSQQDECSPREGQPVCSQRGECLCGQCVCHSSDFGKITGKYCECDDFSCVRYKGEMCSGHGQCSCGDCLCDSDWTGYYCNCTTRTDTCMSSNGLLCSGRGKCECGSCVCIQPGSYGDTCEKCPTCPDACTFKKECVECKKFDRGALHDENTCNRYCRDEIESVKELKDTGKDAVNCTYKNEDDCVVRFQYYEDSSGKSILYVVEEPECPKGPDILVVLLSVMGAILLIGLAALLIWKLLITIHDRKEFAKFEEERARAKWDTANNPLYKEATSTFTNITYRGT
T4 sequence (P06756 31-889 limits assumed, further chain): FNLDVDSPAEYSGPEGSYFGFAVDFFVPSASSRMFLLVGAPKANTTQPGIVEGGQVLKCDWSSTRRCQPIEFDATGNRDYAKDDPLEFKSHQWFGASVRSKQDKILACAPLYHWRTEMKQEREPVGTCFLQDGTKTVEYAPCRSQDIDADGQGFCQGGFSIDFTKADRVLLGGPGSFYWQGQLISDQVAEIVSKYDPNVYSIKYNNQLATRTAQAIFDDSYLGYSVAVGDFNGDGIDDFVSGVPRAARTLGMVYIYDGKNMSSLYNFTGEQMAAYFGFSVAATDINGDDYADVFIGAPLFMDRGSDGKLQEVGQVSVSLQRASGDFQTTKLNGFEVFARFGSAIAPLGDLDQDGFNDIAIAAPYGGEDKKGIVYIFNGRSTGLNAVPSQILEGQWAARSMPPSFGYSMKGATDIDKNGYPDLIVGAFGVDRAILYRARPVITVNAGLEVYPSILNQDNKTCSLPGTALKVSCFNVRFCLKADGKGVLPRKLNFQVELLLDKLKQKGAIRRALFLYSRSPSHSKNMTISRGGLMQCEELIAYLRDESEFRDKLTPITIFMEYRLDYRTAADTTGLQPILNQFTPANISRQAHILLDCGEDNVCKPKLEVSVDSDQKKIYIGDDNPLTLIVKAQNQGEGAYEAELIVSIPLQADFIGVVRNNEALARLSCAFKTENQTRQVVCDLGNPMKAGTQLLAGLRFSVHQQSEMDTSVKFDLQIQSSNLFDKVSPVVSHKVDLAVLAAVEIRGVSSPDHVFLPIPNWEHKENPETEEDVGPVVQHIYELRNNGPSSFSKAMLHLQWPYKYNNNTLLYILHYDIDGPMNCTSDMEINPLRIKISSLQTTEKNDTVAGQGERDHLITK
T4 sequence (P06756 891-1048 limits assumed, further chain): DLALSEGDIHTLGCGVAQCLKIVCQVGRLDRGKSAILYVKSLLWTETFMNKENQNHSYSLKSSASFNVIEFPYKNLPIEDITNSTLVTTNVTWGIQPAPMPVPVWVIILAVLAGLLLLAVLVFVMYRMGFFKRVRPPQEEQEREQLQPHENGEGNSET
Protocol: as §1

[7] = test system: fibroblasts (3567); assay: MTT cell viability assay, fibroblasts; assay type: cell-based; settings: increasing concentrations, 72 hrs

B1: lamstatin: NC1 domain of the α5 chain of collagen type IV; human amino acid sequence SEQ ID NO:1; recombinant (protein, listed as Homo sapiens)
chain: GFLITRHSQTTDAPQCPQGTLQVYEGFSLLYVQGNKRAHGQDLGTAGSCLRRFSTMPFMFCNINNVCNFASRNDYSYWLSTPEPMPMSMQPLKGQSIQPFISRCAVCEAPAVVIAVHSQTIQIPHCPQGWDSLWIGYSFMMHTSAGAEGSGQALASPGSCLEEFRSAPFIECHGRGTCNYYANSYSFWLATVDVSDMFSKPQSETLKAGDLRTRISRCQVCMKRT
In the case of B1, the “viable cells (trypan blue exclusion)” value [1] is reported as “no cytotoxic effect”, the cell count ([1]; 10 μg/mL, 72 hrs after treatment, data not shown) is reported as “anti-proliferative effect was observed” and the “cell viability (MTT)” value ([2]; 24 hrs, data not shown) is reported as “reduced cell viability”. The “cell viability (MTT)” value ([2]; increasing concentrations, 72 hrs) was “decreased cell viability”, the “predominant integrins that mediate the binding of lymphatic endothelial cells” value [3] was “integrins α5 and β1” and the “cell binding in presence of monoclonal antibody against integrin β1” value [4] was “significantly inhibited cell binding”. For the same molecule, the “cell binding in presence of monoclonal antibody against integrin α5” value [5] was “significantly inhibited cell binding”, the “cell binding in presence of monoclonal antibody against integrin β3” value [6] was “no effect on binding” and the “cell viability (MTT)” value [7] was “only lymphatic endothelial cells responded”.

Reference: patent US20120190612A1, “METHODS OF TREATMENT” (CRC FOR ASTHMA AND AIRWAYS LTD., priority 2009, published 2012)
